# Target: Mboumar-9 transposase (T216A) (Messor bouvieri)
# Test: SEC; analytical size-exclusion chromatography of DNA-free transposase on Superdex 200 at 4 °C; 5.7 uM in 50 uL of 20 mM PIPES pH 6.8, 500 mM NaCl, 5 mM MgCl2, 1 mM DTT; flow 0.5 mL/min
substance,measurement,value
Mboumar-9 transposase (T216A) (enzyme),stoichiometry N,2

# — article PMC3922039
